Assay results as given in patent US20180244743A1.

Columns and labels:
[1] = target: human insulin receptor, A isoform (human) (UniProt P06213); assay: SPA competition with [125I-A14Y]-human insulin, solubilised hIR-A, 0% HSA (Ex 25)
[2] = target: human insulin receptor, A isoform (human) (UniProt P06213); assay: SPA competition with [125I-A14Y]-human insulin, membrane-associated hIR-A, 0.1% HSA (Ex 26)
[3] = target: human insulin receptor, B isoform (human) (UniProt P06213); assay: SPA competition with [125I-A14Y]-human insulin, membrane-associated hIR-B, 0.1% HSA (Ex 26)
[4] = target: human insulin receptor, A isoform (human) (UniProt P06213); assay: SPA competition with [125I-A14Y]-human insulin, solubilised hIR-A, […] HSA (Ex 25)
[5] = target: human insulin-like growth factor 1 receptor (human) (UniProt P08069); assay: SPA competition with [125I-Tyr31]-human IGF-1, membrane-associated hIGF-1R, 0.1% HSA (Ex 26)

Substance	relative binding affinity (% rel to HI) [1]	relative binding affinity (% rel to HI) [2]	relative binding affinity (% rel to HI) [3]	relative binding affinity (% rel to HI) [4]	relative binding affinity (% rel to HI) [5]
A21G, B3E, desB27, B29K(N(eps)tetradecanedioyl-gGlu-2×OEG), desB30 human insulin (ligand)	23.8 % rel to HI	28.9 % rel to HI	29 % rel to HI	9.2 % rel to HI	
A21A, B3E, desB27, B29K(N(eps)tetradecanedioyl-4×gGlu), desB30 human insulin (ligand)	70.5 % rel to HI	40.5 % rel to HI	42.3 % rel to HI	32.3 % rel to HI	
A21A, B3Q, desB27, B29K(N(eps)hexadecanedioyl-4×gGlu), desB30 human insulin (ligand)	99.5 % rel to HI	14.1 % rel to HI	15.4 % rel to HI	8.2 % rel to HI	
A21A, B3E, desB27, B29K(N(eps)tetradecanedioyl-gGlu-2×OEG), desB30 human insulin (ligand)	63.4 % rel to HI	52.1 % rel to HI	49.6 % rel to HI	22.3 % rel to HI	
A21A, B3Q, desB27, B29K(N(eps)tetradecanedioyl-gGlu-2×OEG), desB30 human insulin (ligand)	87.7 % rel to HI	63.8 % rel to HI	48.8 % rel to HI	32 % rel to HI	
A21A, B3Q, desB27, B29K(N(eps)hexadecanedioyl-gGlu-2×OEG), desB30 human insulin (ligand)	76.9 % rel to HI	15.8 % rel to HI	14.6 % rel to HI	5.6 % rel to HI	
A21A, B3Q, desB27, B29K(N(eps)tetradecanedioyl-4×gGlu), desB30 human insulin (ligand)	104 % rel to HI	49.4 % rel to HI	62.9 % rel to HI	42.4 % rel to HI	
A21A, B3E, desB27, B29K(N(eps)hexadecanedioyl-gGlu-2×OEG), desB30 human insulin (ligand)		14.3 % rel to HI	13.2 % rel to HI	3.6 % rel to HI	0.1 % rel to HI
A8H, A21G, B3E, desB27, B29K(N(eps)tetradecanedioyl-gGlu-2×OEG), desB30 human insulin (ligand)	100 % rel to HI	89.6 % rel to HI	90.2 % rel to HI	42.4 % rel to HI	
A8H, B3E, desB27, B29K(N(eps)tetradecanedioyl-gGlu-2×OEG), desB30 human insulin (ligand)	172 % rel to HI	84.1 % rel to HI	82.1 % rel to HI	70.5 % rel to HI	
B3Q, desB27, B29K(N(eps)tetradecanedioyl-4×gGlu), desB30 human insulin (from UniProt P01308 90-110) (ligand)					4.1 % rel to HI
A8R, B3E, desB27, B29K(N(eps)tetradecanedioyl-gGlu-2×OEG), desB30 human insulin (ligand)	103 % rel to HI	61.3 % rel to HI	67.9 % rel to HI	45.5 % rel to HI	
A8H, A21A, B3E, desB27, B29K(N(eps)tetradecanedioyl-4×gGlu), desB30 human insulin (ligand)	253 % rel to HI	88.5 % rel to HI	124 % rel to HI	135 % rel to HI	
A14E, A21A, B3Q, desB27, B29K(N(eps)tetradecanedioyl-4×gGlu), desB30 human insulin (ligand)	63.8 % rel to HI	31 % rel to HI	36.8 % rel to HI	37.4 % rel to HI	
A8H, A21A, B3E, desB27, B29K(N(eps)tetradecanedioyl-gGlu-2×OEG), desB30 human insulin (ligand)	225 % rel to HI	83.7 % rel to HI	81.9 % rel to HI	82.3 % rel to HI	
A21A, B3E, desB27, B29K(N(eps)hexadecanedioyl-4×gGlu), desB30 human insulin (ligand)	69 % rel to HI	14.2 % rel to HI	15 % rel to HI	6.2 % rel to HI	
